Experimental data: patent publication US20250250357A1
Like-named read-outs stand apart in the source and are kept apart here.

Key:
[1] = target: human MSLN-hFc protein (Acro, Cat. No. MSN-H5253) (human) (UniProt Q13421); assay: ELISA on coated antigen, antibody 0.1 nM
[2] = target: human MSLN-R3 on HEK293T-hMSLN-R3 recombinant cells (human) (UniProt Q13421); assay: FACS, HEK293T-hMSLN-R3 cells
[3] = target: human MSLN-hFc protein (Acro, Cat. No. MSN-H5253) (human) (UniProt Q13421); assay: ELISA on coated antigen, antibody 0.001 nM
[4] = target: monkey MSLN on HEK293T-monkey MSLN recombinant cells (monkey); assay: FACS, HEK293T-monkey MSLN cells
[5] = target: monkey MSLN on HEK293T-monkey MSLN recombinant cells (monkey); assay: FACS, HEK293T-monkey MSLN cells; remark: listed apart in the source
[6] = target: human MSLN-hFc protein (Acro, Cat. No. MSN-H5253) (human) (UniProt Q13421); assay: ELISA on coated antigen, antibody 0.001 nM; remark: listed apart in the source
[7] = target: human MSLN-hFc protein (Acro, Cat. No. MSN-H5253) (human) (UniProt Q13421); assay: ELISA on coated antigen, antibody 1 nM
[8] = target: human MSLN-R3 on HEK293T-hMSLN-R3 recombinant cells (human) (UniProt Q13421); assay: FACS, HEK293T-hMSLN-R3 cells; remark: listed apart in the source
[9] = target: human MSLN on OVCAR3 tumor cells (human) (UniProt Q13421); assay: FACS, OVCAR3 cells
Sequence of human MSLN on OVCAR3 tumor cells (human) (Q13421 other isoform, or with tags, fused parts or gaps): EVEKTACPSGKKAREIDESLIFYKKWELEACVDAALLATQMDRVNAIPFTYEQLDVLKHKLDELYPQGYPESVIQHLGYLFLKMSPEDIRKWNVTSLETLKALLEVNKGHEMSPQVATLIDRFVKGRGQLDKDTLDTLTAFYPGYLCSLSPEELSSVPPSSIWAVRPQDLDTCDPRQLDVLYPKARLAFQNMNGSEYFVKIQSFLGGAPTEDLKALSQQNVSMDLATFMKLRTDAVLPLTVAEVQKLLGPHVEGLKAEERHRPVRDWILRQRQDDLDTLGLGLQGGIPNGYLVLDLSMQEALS

[10] = target: human MSLN on OVCAR3 tumor cells (human) (UniProt Q13421); assay: FACS, OVCAR3 cells; remark: listed apart in the source
[11] = target: human MSLN-hFc protein (Acro, Cat. No. MSN-H5253) (human) (UniProt Q13421); assay: ELISA on coated antigen, antibody 100 nM
[12] = target: human MSLN-R3 on HEK293T-hMSLN-R3 recombinant cells (human) (UniProt Q13421); assay: FACS, HEK293T-hMSLN-R3 cells; remark: listed apart in the source
[13] = target: human MSLN-hFc protein (Acro, Cat. No. MSN-H5253) (human) (UniProt Q13421); assay: ELISA on coated antigen, antibody 0.01 nM
[14] = target: human MSLN on OVCAR3 tumor cells (human) (UniProt Q13421); assay: FACS, OVCAR3 cells; remark: listed apart in the source
[15] = target: human MSLN-hFc protein (Acro, Cat. No. MSN-H5253) (human) (UniProt Q13421); assay: ELISA on coated antigen, antibody 1 nM; remark: listed apart in the source
[16] = target: human MSLN-hFc protein (Acro, Cat. No. MSN-H5253) (human) (UniProt Q13421); assay: ELISA on coated antigen, antibody 0.1 nM; remark: listed apart in the source
[17] = target: human MSLN on OVCAR3 tumor cells (human) (UniProt Q13421); assay: FACS, OVCAR3 cells; remark: listed apart in the source
[18] = target: human MSLN-hFc protein (Acro, Cat. No. MSN-H5253) (human) (UniProt Q13421); assay: ELISA on coated antigen, antibody 0.0001 nM
[19] = target: monkey MSLN on HEK293T-monkey MSLN recombinant cells (monkey); assay: FACS, HEK293T-monkey MSLN cells; remark: listed apart in the source
[20] = target: human MSLN-hFc protein (Acro, Cat. No. MSN-H5253) (human) (UniProt Q13421); assay: ELISA on coated antigen, antibody 10 nM
[21] = target: human MSLN-R3 on HEK293T-hMSLN-R3 recombinant cells (human) (UniProt Q13421); assay: FACS, HEK293T-hMSLN-R3 cells; remark: listed apart in the source
[22] = target: monkey MSLN on HEK293T-monkey MSLN recombinant cells (monkey); assay: FACS, HEK293T-monkey MSLN cells; remark: listed apart in the source
[23] = target: human MSLN-hFc protein (Acro, Cat. No. MSN-H5253) (human) (UniProt Q13421); assay: ELISA, coated human MSLN-hFc, antibody 10 nM
[24] = target: human MSLN-hFc protein (Acro, Cat. No. MSN-H5253) (human) (UniProt Q13421); assay: ELISA, coated human MSLN-hFc, antibody 0.0001 nM
[25] = target: human MSLN-hFc protein (Acro, Cat. No. MSN-H5253) (human) (UniProt Q13421); assay: ELISA, coated human MSLN-hFc, antibody 0.001 nM
[26] = target: human MSLN-hFc protein (Acro, Cat. No. MSN-H5253) (human) (UniProt Q13421); assay: ELISA, coated human MSLN-hFc, antibody 100 nM
[27] = target: human MSLN-hFc protein (Acro, Cat. No. MSN-H5253) (human) (UniProt Q13421); assay: ELISA, coated human MSLN-hFc, antibody 10 nM; remark: listed apart in the source
[28] = target: human MSLN-hFc protein (Acro, Cat. No. MSN-H5253) (human) (UniProt Q13421); assay: ELISA, coated human MSLN-hFc, antibody 0.01 nM
[29] = target: human MSLN-hFc protein (Acro, Cat. No. MSN-H5253) (human) (UniProt Q13421); assay: ELISA, coated human MSLN-hFc, antibody 0.1 nM
[30] = target: human MSLN-hFc protein (Acro, Cat. No. MSN-H5253) (human) (UniProt Q13421); assay: ELISA, coated human MSLN-hFc, antibody 1 nM
[31] = target: human MSLN-hFc protein (Acro, Cat. No. MSN-H5253) (human) (UniProt Q13421); assay: ELISA, coated human MSLN-hFc, antibody 0.001 nM; remark: listed apart in the source
[32] = target: human MSLN-hFc protein (Acro, Cat. No. MSN-H5253) (human) (UniProt Q13421); assay: ELISA, coated human MSLN-hFc, antibody 1 nM; remark: listed apart in the source
[33] = target: human MSLN-hFc protein (Acro, Cat. No. MSN-H5253) (human) (UniProt Q13421); assay: ELISA, coated human MSLN-hFc, antibody 0.1 nM; remark: listed apart in the source
[34] = target: human MSLN-hFc protein (Acro, Cat. No. MSN-H5253) (human) (UniProt Q13421); assay: ELISA, coated human MSLN-hFc, antibody 0.01 nM; remark: listed apart in the source
[35] = target: human MSLN-hFc protein (Acro, Cat. No. MSN-H5253) (human) (UniProt Q13421); assay: ELISA, coated human MSLN-hFc, antibody 100 nM; remark: listed apart in the source
[36] = target: monkey MSLN full-length protein (NCBI: XP_028696439.1) on HEK293T cells (monkey); assay: FACS on HEK293T-monkey MSLN cells; antibody 100 nM
[37] = target: monkey MSLN full-length protein (NCBI: XP_028696439.1) on HEK293T cells (monkey); assay: FACS on HEK293T-monkey MSLN cells; antibody 0.8 nM
[38] = target: monkey MSLN full-length protein expressed on HEK293T cells (HEK293T-monkey MSLN) (monkey); assay: FACS on HEK293T-monkey MSLN cells
[39] = target: monkey MSLN full-length protein (NCBI: XP_028696439.1) on HEK293T cells (monkey); assay: FACS on HEK293T-monkey MSLN cells; antibody 20 nM
[40] = target: monkey MSLN full-length protein (NCBI: XP_028696439.1) on HEK293T cells (monkey); assay: FACS on HEK293T-monkey MSLN cells; antibody 4 nM
[41] = target: monkey MSLN full-length protein (NCBI: XP_028696439.1) on HEK293T cells (monkey); assay: FACS on HEK293T-monkey MSLN cells; antibody 0.0064 nM
[42] = target: monkey MSLN full-length protein (NCBI: XP_028696439.1) on HEK293T cells (monkey); assay: FACS on HEK293T-monkey MSLN cells; antibody […]
[43] = target: monkey MSLN full-length protein (NCBI: XP_028696439.1) on HEK293T cells (monkey); assay: FACS on HEK293T-monkey MSLN cells; antibody 0.032 nM
[44] = target: monkey MSLN full-length protein (NCBI: XP_028696439.1) on HEK293T cells (monkey); assay: FACS on HEK293T-monkey MSLN cells; antibody 0.00128 nM
[45] = target: human MSLN-FL-his protein (human) (UniProt Q13421); assay: ELISA, antibody 100 nM
Sequence of human MSLN-FL-his protein (human) (Q13421 other isoform, or with tags, fused parts or gaps): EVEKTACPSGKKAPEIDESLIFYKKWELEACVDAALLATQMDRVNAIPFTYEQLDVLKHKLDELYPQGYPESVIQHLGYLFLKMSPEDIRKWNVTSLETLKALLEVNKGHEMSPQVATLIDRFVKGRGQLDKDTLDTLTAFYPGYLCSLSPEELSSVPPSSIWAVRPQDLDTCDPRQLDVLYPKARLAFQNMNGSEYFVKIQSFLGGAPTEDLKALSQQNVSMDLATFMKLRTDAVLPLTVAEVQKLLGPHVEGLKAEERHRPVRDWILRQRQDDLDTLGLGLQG

Sequence of human MSLN-R3 on HEK293T-hMSLN-R3 recombinant cells (human) (Q13421 495-614): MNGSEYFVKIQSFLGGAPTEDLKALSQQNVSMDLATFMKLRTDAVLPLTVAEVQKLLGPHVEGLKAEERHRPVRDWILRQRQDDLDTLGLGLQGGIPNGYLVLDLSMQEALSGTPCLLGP
Sequence of human MSLN-hFc protein (Acro, Cat. No. MSN-H5253) (human) (Q13421 other isoform, or with tags, fused parts or gaps limits assumed): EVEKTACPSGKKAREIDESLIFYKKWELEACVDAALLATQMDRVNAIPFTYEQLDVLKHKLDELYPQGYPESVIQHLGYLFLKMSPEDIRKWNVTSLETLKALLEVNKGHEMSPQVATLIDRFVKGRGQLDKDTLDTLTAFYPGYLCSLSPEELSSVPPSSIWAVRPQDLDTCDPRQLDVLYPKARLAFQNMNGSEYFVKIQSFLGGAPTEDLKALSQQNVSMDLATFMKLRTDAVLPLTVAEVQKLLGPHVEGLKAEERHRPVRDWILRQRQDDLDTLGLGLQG

Substance: Tab084 (NC) (scFv)
- OD450 [1]: 0.13 OD450
- Maximum MFI [2]: 439 MFI
- OD450 [3]: 0.07 OD450
- Maximum MFI [4]: 172 MFI
- Maximum MFI [5]: 279 MFI
- OD450 [6]: 0.11 OD450
- OD450 [7]: 0.06 OD450
- Maximum MFI [8]: 304 MFI
- Maximum MFI [9]: 454 MFI
- Maximum MFI [10]: 336 MFI
- OD450 [11]: 0.07 OD450
- Maximum MFI [12]: 156 MFI
- OD450 [13]: 0.07 OD450
- Maximum MFI [14]: 469 MFI
- OD450 [15]: 0.07 OD450
- OD450 [16]: 0.06 OD450
- Maximum MFI [17]: 209 MFI
- OD450 [18]: 0.06 OD450
- Maximum MFI [19]: 231 MFI
- OD450 [20]: 0.07 OD450
- Maximum MFI [21]: 92 MFI
- Maximum MFI [22]: 104 MFI

Substance: Tab084 (NC), m971 VH-(G4S)3-VL-his (scFv)
- OD450 nm [23]: 0.05
- OD450 nm [24]: 0.05
- OD450 nm [25]: 0.06
- OD450 nm [26]: 0.05
- OD450 nm [27]: 0.07
- OD450 nm [28]: 0.05
- OD450 nm [29]: 0.05
- OD450 nm [30]: 0.06
- OD450 nm [31]: 0.05
- OD450 nm [32]: 0.05
- OD450 nm [33]: 0.07
- OD450 nm [34]: 0.06
- OD450 nm [35]: 0.07

Substance: Tab106 (YP218, hIgG1) (antibody)
- FACS fluorescence intensity [36]: 3290
- FACS fluorescence intensity [37]: 860
- EC50 [38]: < 0.5 nM
- Maximum mean fluorescence intensity [38]: 12400
- FACS fluorescence intensity [39]: 2660
- FACS fluorescence intensity [40]: 2440
- FACS fluorescence intensity [41]: 100
- FACS fluorescence intensity [42]: 313
- FACS fluorescence intensity [43]: 142
- FACS fluorescence intensity [44]: 90

Substance: Tab131 (m912, scFv-hIgG1 Fc) (Fc fusion)
- FACS fluorescence intensity [36]: 87
- FACS fluorescence intensity [37]: 87
- FACS fluorescence intensity [39]: 85
- FACS fluorescence intensity [40]: 86
- FACS fluorescence intensity [41]: 85
- OD450 nm [45]: 0.16
- FACS fluorescence intensity [42]: 83
- FACS fluorescence intensity [43]: 106
- FACS fluorescence intensity [44]: 93
